Experimental data: patent publication US20220127365A1

How the values were obtained:
human CD94 (human) [1] = biological target: human CD94 (human) (UniProt Q13241); experiment: table column 'HLA-E blocking'; flow cytometry on NK cells of healthy donor PBMCs, antibody at saturating concentration, blocked ligand PE labeled HLA-E tetramer; percent blocking = 100-((percent HLA-E positive with antibody)/(percent HLA-E positive with isotype)*100)
human CD94 (human) [2] = biological target: human CD94 (human) (UniProt Q13241); experiment: HLA-E tetramer blocking on healthy-donor PBMC NK cells, flow cytometry; competitor HLA-E tetramer
human CD94 (human) [3] = biological target: human CD94 (human) (UniProt Q13241); experiment: table column 'Affinity on human NK cells'; flow cytometry titration on human primary NK cells (the filing gives these affinities as EC50 of the titration curve)
human CD94 (human) [4] = biological target: human CD94 (human) (UniProt Q13241); experiment: competition assay, flow cytometry on NK cells of healthy donor PBMCs; labeled HP-3B1 titrated, concurrently Human IgG1 control
human CD94 (human) [5] = biological target: human CD94 (human) (UniProt Q13241); experiment: competition assay, flow cytometry on CD3-CD56+ NK cells of healthy donor PBMCs; labeled HP-3B1 titrated in the presence of 1E4 at 11 µg/ml
human CD94 (human) [6] = biological target: human CD94 (human) (UniProt Q13241); experiment: competition assay, flow cytometry on CD3-CD56+ NK cells of healthy donor PBMCs; labeled HP-3B1 titrated, concurrently Human IgG1 control (or 18H3 at 1.3 µg/ml)

human CD94 (human), sequence (Q13241 whole entry): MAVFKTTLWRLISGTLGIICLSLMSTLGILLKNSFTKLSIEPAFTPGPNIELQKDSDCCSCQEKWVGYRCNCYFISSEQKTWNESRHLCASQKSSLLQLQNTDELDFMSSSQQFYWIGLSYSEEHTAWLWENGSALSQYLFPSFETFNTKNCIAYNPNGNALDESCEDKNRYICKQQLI

Substance	HLA-E blocking (human CD94 (human) [1])	percent HLA-E blocking (human CD94 (human) [2])	Affinity on human NK cells (human CD94 (human) [3])	EC50 (read off the curve) (human CD94 (human) [4])	EC50 (read off the curve) (human CD94 (human) [5])	EC50 (read off the curve) (human CD94 (human) [6])
anti-CD94 antibody clone DX22	99%	> 40%	0.15 nM	–	–	–
anti-CD94 antibody clone HP-3B1	99.8%	> 40%	3 nM	3 nM	2 nM	3 nM
